This note sets out measurements from patent publication US10087225B2, “Formulation of MK2 inhibitor peptides” (MOERAE MATRIX, INC., priority 2015, dated 2018).

Assay in all cases: Kinase Profiling Assay
Holding throughout (assay type): biochemical

Assay [1] concerns the target HIPK2(h) (Homo sapiens, UniProt Q9H2X6).
Assay [2] deals with T1, EphB2(h) (Homo sapiens, UniProt P29323).
T1 sequence (P29323 19-1055): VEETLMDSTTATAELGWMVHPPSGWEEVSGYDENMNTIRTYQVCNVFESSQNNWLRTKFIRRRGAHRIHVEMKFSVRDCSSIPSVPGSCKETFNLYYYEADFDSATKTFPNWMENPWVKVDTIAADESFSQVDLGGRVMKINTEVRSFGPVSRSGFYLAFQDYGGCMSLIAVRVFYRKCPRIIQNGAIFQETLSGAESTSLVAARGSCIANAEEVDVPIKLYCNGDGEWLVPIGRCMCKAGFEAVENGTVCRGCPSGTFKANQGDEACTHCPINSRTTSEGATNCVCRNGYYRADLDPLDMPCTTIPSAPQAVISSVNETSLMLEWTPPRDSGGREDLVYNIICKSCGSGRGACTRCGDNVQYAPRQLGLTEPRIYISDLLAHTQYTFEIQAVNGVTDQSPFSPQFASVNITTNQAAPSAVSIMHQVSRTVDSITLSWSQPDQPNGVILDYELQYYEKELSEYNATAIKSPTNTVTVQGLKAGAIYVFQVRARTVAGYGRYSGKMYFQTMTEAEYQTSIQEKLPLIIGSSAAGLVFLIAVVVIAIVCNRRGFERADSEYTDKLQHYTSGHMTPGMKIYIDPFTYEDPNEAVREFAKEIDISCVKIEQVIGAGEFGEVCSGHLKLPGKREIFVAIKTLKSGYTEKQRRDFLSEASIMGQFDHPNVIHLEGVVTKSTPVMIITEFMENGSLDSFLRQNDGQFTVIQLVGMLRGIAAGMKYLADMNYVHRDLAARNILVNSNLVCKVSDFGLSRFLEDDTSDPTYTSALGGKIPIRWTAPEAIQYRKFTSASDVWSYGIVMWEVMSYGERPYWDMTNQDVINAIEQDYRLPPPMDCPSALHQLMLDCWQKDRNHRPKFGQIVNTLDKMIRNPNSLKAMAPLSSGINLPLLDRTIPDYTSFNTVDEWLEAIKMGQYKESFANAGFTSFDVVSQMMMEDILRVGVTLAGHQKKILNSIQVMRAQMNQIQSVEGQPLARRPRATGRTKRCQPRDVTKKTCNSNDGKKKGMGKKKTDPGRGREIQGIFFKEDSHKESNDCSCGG
To be noted: for % activity: 100 μM.

Assay [3] deals with cKit(h) (Homo sapiens, UniProt P10721). To be noted: for % activity: 100 μM.
Assay [4] concerns the target ZIPK(h) (Homo sapiens, UniProt O43293). Conditions: for % activity: 100 μM.
In assay [5] the target is CHK2(R145W)(h) (Homo sapiens, UniProt O96017, R145W). Conditions: for % activity: 100 μM.
Chain of CHK2(R145W)(h) (O96017 whole entry R145W): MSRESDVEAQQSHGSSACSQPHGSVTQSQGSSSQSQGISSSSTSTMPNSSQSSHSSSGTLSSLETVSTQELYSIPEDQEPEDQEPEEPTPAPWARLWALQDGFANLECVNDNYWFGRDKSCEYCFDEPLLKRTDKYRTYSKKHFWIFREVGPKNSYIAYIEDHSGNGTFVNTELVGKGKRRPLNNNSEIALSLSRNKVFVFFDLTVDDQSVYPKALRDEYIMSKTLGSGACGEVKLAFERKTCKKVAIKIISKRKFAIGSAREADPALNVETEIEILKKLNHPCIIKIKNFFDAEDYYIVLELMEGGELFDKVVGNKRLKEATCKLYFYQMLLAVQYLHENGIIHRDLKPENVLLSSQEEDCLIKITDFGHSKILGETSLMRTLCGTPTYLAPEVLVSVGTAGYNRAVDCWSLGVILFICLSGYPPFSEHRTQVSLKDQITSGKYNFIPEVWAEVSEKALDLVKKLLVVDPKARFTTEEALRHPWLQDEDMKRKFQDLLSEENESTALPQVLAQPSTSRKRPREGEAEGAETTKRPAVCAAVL
For assay [6], the target named is cKit(D816V)(h) (Homo sapiens, UniProt P10721, D816V). To be noted: 100 μM.
Assay [7] addresses EGFR(h) (Homo sapiens, UniProt P00533). Conditions: 100 μM.
The target of assay [8] is mTOR/FKBP12(h) (Homo sapiens, UniProt P42345). To be noted: 100 μM.
Chain of mTOR/FKBP12(h) (P42345 1362-2549 limits assumed): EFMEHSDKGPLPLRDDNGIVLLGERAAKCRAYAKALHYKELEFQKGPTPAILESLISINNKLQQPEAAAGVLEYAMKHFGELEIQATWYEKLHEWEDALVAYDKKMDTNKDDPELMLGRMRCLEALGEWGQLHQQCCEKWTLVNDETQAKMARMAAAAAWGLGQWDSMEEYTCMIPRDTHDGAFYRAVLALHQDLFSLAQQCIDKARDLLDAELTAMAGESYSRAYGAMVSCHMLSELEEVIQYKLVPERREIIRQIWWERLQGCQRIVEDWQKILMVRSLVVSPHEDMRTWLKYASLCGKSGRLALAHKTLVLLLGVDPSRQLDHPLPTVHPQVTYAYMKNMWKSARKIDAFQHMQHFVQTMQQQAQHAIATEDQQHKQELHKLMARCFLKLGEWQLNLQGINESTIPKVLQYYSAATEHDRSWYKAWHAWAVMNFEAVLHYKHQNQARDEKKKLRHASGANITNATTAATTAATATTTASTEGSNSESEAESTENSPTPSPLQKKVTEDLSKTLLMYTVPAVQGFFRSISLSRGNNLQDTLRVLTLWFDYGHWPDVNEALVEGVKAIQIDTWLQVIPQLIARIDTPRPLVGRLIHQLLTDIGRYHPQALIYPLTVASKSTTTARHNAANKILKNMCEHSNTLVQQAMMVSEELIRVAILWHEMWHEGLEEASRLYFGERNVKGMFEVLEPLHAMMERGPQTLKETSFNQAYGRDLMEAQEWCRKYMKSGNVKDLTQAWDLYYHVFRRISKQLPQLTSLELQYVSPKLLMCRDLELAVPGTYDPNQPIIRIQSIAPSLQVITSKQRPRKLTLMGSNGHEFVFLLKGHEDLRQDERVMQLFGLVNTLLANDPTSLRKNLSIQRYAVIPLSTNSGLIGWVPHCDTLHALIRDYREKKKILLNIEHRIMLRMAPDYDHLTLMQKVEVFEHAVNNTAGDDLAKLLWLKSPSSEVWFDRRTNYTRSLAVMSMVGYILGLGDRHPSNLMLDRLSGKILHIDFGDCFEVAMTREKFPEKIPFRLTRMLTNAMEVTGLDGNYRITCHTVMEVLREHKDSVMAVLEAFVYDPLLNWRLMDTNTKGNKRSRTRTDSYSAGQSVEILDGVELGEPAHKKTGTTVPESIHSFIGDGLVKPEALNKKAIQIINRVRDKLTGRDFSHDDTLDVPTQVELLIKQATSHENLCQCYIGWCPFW
The target of assay [9] is Ron(h) (Homo sapiens, UniProt Q04912). To be noted: 100 μM.
Assay [10] concerns the target PKCα(h) (Homo sapiens, UniProt P17252). Conditions: 100 μM.
In assay [11] the target is T2, Rse(h) (Homo sapiens, UniProt Q06418).
T2 sequence (Q06418 41-890): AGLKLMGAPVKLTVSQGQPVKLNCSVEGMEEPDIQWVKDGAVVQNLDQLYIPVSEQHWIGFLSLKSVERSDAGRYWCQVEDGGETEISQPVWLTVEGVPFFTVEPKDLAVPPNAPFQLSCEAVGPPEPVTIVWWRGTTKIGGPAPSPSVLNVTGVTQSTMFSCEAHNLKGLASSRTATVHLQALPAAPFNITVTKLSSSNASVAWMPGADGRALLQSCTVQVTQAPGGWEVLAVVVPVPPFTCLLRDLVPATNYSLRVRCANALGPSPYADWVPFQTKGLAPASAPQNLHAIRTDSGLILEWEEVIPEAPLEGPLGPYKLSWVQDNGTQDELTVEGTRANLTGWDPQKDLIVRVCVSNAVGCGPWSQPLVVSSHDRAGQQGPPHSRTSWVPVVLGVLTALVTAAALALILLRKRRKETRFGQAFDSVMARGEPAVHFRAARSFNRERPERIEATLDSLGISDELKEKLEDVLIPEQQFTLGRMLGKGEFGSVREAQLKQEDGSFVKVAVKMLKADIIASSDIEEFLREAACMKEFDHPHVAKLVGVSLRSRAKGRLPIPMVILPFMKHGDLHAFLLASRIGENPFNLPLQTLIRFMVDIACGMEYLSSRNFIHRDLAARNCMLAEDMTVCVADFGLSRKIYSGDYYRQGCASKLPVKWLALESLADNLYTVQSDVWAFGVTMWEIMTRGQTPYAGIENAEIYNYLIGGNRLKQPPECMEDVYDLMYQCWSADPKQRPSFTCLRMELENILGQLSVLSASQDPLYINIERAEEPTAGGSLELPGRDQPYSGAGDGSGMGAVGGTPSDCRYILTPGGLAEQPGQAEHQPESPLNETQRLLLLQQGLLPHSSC
To be noted: 100 μM.

Assay [12] concerns the target Ret(V804L)(h) (Homo sapiens, UniProt P07949, V804L). To be noted: 100 μM.
For assay [13], the target named is Pyk2(h) (Homo sapiens, UniProt Q14289). Conditions: 100 μM.
Chain of Pyk2(h) (Q14289 whole entry): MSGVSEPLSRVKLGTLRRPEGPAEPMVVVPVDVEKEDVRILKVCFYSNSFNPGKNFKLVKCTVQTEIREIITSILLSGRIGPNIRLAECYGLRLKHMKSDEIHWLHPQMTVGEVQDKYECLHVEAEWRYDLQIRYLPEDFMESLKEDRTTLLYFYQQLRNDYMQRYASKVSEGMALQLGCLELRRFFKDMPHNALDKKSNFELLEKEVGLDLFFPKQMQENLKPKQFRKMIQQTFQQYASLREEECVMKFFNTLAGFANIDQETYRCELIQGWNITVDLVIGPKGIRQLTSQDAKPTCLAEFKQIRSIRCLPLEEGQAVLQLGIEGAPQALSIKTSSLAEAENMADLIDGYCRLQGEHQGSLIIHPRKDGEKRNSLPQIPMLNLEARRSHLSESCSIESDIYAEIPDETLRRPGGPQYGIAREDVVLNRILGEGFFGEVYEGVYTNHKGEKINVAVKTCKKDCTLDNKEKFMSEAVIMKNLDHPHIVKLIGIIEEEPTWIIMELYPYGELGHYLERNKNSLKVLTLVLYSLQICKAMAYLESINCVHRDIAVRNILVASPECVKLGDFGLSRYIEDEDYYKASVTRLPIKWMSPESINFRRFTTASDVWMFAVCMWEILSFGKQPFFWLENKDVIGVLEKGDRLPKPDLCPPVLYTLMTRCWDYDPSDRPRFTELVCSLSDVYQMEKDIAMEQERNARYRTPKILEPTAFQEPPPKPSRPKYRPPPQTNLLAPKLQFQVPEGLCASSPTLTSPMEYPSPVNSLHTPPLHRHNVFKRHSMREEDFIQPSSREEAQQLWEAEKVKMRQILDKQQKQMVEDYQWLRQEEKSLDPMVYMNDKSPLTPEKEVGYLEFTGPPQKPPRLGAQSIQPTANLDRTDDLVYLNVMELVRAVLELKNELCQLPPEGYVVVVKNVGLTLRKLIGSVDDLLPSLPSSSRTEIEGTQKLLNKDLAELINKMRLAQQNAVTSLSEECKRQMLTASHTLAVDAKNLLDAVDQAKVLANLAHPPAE
The target in assay [14] is PKCβII(h) (Homo sapiens, UniProt P05771). To be noted: 100 μM.
Chain of PKCβII(h) (P05771 1-673 isoform P05771-2): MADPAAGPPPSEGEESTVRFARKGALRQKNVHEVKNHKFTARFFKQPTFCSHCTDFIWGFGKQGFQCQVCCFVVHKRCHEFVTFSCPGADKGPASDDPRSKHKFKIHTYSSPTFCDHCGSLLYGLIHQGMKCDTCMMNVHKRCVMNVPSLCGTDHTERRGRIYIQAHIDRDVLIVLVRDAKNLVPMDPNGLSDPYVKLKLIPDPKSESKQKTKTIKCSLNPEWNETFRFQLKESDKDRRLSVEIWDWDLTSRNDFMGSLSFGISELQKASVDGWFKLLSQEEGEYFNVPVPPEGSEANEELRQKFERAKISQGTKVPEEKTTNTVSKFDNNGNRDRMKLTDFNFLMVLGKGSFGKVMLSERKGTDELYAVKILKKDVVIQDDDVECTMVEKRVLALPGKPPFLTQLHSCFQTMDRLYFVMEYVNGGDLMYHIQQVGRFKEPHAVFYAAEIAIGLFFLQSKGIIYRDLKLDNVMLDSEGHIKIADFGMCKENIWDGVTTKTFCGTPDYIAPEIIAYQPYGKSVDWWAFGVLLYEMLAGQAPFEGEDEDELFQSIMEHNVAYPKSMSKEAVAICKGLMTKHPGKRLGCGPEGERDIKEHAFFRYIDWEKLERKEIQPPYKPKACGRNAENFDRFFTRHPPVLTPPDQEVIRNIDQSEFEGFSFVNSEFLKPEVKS
Assay [15] concerns the target JNK3(h) (Homo sapiens, UniProt P53779). Conditions: 100 μM.

Chain of ZIPK(h) (O43293 whole entry): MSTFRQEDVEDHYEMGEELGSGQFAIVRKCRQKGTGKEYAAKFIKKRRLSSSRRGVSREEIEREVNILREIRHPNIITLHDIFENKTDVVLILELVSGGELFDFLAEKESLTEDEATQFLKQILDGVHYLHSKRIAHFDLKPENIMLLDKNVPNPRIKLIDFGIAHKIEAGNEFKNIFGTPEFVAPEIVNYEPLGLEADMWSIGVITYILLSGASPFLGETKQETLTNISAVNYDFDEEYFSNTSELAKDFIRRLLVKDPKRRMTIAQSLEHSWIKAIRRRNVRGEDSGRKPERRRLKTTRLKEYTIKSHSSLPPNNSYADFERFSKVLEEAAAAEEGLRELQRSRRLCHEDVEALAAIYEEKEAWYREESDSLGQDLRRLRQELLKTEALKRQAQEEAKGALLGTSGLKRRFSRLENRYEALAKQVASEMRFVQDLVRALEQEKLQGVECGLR
Chain of JNK3(h) (P53779 whole entry): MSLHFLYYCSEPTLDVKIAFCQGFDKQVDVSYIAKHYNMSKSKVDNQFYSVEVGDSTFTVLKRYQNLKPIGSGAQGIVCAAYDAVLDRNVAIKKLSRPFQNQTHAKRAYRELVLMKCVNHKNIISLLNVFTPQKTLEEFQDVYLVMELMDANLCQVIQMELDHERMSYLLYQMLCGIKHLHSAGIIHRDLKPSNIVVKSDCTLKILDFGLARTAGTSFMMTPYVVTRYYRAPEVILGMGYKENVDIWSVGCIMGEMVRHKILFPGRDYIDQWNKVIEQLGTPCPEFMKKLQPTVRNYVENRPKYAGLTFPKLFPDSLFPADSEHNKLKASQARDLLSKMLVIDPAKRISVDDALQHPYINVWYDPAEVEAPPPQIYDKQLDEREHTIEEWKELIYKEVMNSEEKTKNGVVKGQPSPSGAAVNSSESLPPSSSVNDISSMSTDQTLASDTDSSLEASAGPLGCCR

As to H-YARAAARQARAKALARQLGVAA-OH [MMI-0100], the activity at 100 µM in assay [1] was 98%; in assay [2] it was 68%; in assay [3], 95%; in assay [4] it was 80%; in assay [5], 97%.
As for “HRRIKAWLKKIKALARQLGVAA (Mammalian) [MMI-0500]”, the “% activity” value is reported as 38% in assay [1] (100 μM); 30% in assay [6]; -1% in [7]; 140% in [8]; 46% in [9]; 70% in assay [2]. For the same substance, the “% activity” value is 45% in assay [3]; 1% in [4]; 3% in assay [10]; 3% in assay [5]; 63% in assay [11]; 20% in [12]. The figures for the “% activity” value in assay [13], in [14] and in assay [15] were 46%, 3% and 171%, respectively.
On to “YARAAARQARAKALNRQLGVA (Mammalian) [MMI-0200]”, for which the “% activity” value was determined as 118% in assay [6]; 83% in [7]; 118% in assay [8]; 120% in assay [9]; 128% in assay [2]; 110% in assay [3]. Also, the “% activity” value in assay [4] was 67%; in assay [10] it was 100%; in assay [5], 81%; in assay [11] it was 88%; in [12] it was 100%; in assay [13], 127%. The results for the “% activity” value in [14] and in assay [15] were 100% and 90%, respectively.
